First the molecules themselves.
T1: DEAF1-FLAG (UniProt O75398 1-565)
T1 sequence: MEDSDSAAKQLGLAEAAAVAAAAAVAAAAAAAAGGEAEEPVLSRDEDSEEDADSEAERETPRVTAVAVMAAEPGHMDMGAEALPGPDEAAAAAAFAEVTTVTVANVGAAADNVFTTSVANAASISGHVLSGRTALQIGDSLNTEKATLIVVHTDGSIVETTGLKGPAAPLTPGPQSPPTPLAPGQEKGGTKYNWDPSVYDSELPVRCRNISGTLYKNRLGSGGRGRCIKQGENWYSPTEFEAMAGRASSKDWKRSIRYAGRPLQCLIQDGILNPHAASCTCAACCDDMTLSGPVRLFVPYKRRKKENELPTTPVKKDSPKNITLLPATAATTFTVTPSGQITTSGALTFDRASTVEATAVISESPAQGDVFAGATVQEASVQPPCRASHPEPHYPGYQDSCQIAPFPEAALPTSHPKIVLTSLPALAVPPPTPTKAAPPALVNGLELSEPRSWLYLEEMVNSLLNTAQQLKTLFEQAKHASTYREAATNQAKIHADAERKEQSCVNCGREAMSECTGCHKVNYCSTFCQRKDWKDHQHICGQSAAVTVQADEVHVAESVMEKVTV

B1: 8-space probe (two TTCGGG motifs) (dsDNA)
DNA 1: TTGAGTTCGGGAAACTTCGGGCTCAA
DNA 2: TTGAGCCCGAAGTTTCCCGAACTCAA
B2: EIF4G3 promoter probe (dsDNA)
DNA 1: ACTTCGGACTTTTTCGGAAT
DNA 2: ATTCCGAAAAAGTCCGAAGT
B3: 6-space probe (two TTCGGG motifs) (dsDNA)
DNA 1: TTGAGTTCGGGTGTTCGGGCTCAA
DNA 2: TTGAGCCCGAACACCCGAACTCAA
B4: 9-space probe (dsDNA)
DNA 1: TTGAGTTCGGGAAAACTTCGGGCTCAA
DNA 2: TTGAGCCCGAAGTTTTCCCGAACTCAA
B5: 6mut (TTCGGG to AACGCC in both half-sites) (dsDNA)
DNA 1: TTGAGAACGCCTGAACGCCCTCAA
DNA 2: TTGAGGGCGTTCAGGCGTTCTCAA
B6: 11-space probe (dsDNA)
DNA 1: TTGAGTTCGGGAAAAAACTTCGGGCTCAA
DNA 2: TTGAGCCCGAAGTTTTTTCCCGAACTCAA
B7: 6-space methylated probe (dsDNA)
DNA 1: TTGAGTTCGGGTGTTCGGGCTCAA
DNA 2: TTGAGCCCGAACACCCGAACTCAA
modifications: 5-methylcytosine on both strands at the CpG of the second half-site
B8: 8mut (TTCGGG to AACGCC in both half-sites) (dsDNA)
DNA 1: TTGAGAACGCCAAACAACGCCCTCAA
DNA 2: TTGAGGGCGTTGTTTGGCGTTCTCAA
B9: 10-space probe (dsDNA)
DNA 1: TTGAGTTCGGGAAAAACTTCGGGCTCAA
DNA 2: TTGAGCCCGAAGTTTTTCCCGAACTCAA

The target in the data set is T1, DEAF1-FLAG. In words: EMSA; EMSA: 200 ng DEAF1-FLAG, 30 min at room temperature, 1x EMSA binding buffer (composition and pH not given), 1 ug dA:dT, 5% native polyacrylamide gel. Conditions: protein: recombinant; tags: FLAG; chain copies: 2; label: 32P. For orientation: A gel shift assay detects complexes by their altered migration in electrophoresis.
Consider B1, for which the binding result is “binds”.

B2: the binding result is “binds”. To B3 belongs “binds”.

For B4, the binding result was “binds”. To B5 belongs “no binding”; to B6, “binds”; to B7, “no binding”. To B8 belongs “no binding”. B9: the binding result is listed as “binds”.

These data come from PMC4274154, “DEAF1 Binds Unmethylated and Variably Spaced CpG Dinucleotide Motifs”.
